From patent US20250163169A1, “ANTIBODIES FOR PREVENTING THE CLEAVAGE OF CD95L BY METALLOPROTEASES” (INSTITUT NATIONAL DE LA SANTÉ ET DE LA RECHERCHE MÉDICALE, priority 2022, published 2025) come the findings set out here.

One experiment deals with CD95L cleavage by MMP2. Put plainly: Cleavage of recombinant Ig-CD95L by MMP2 in vitro, cleaved fragment monitored by immunoblotting. Type of experiment: biochemical, Homo sapiens. The note with it: Ig-CD95L 100 ng pre-incubated 15 min with antibody (100 pg/mL), then MMP 1 h. The method, then: (§1) FIG. 2. Monoclonal antibodies targeting the Metalloprotease-Cleavage Sites of CD95L (MCSCs). A. Left panel: The extracellular region of CD95L encompassing amino acid residues 102 to 281 can be cleaved by metalloproteases at different sites. Arrows represent putative cleavage site in CD95L sequence. Right panel: Using three peptides (peptides 1, 2 and 3) covering most of the MCSCs of CD95L, we have generated monoclonal antibodies. Indicated peptides were injected in mice to generate monoclonal antibodies and three different hybridoma were selected regarding their ability to bind CD95L. According to their affinity for the indicated peptides (assessed using ELISA), the 3C7 epitope should cover the […] sequence (SEQ ID NO:24). […] The metalloprotease-cleaved fragment of Ig-CD95L (CD95L devoid of its released Ig domain of gp190) was monitored by immunoblotting. […] CD95L-expressing leukemic T cell 1A12 was incubated for 24 h with indicated antibodies ([…]) or the pan-MMP inhibitor GM6001 (10 μM) and the expression level of membrane-bound CD95L was assessed by flow cytometry. […]
Chain of CD95L cleavage by MMP2 (P48023 103-281 limits assumed): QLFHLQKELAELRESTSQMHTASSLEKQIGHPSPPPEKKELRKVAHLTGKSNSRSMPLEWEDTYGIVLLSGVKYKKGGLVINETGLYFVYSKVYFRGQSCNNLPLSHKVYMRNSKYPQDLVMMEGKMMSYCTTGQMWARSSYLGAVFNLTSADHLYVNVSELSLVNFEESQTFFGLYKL
(§2) We have generated different extracellular regions of CD95L fused to large domains including the Ig domain of the gp190 (LIF receptor). […] The privileged cleavage sites (^113EL^114 for MMPs and ^129KQ^130 for ADAM) were then determined from MS/MS sequencing of the resulting cleavage products. […]
(In western blotting, separated proteins are transferred to a membrane and probed.)

For the next experiment, the system named is CD95L cleavage by MMP3. Put plainly: Cleavage of recombinant Ig-CD95L by MMP3 in vitro, cleaved fragment monitored by immunoblotting. The following applies: Ig-CD95L 100 ng pre-incubated 15 min with antibody (100 pg/mL), then MMP 1 h. Type of experiment: biochemical, Homo sapiens. The method, then: as §1, §2
Chain of CD95L cleavage by MMP3 (P48023 103-281 limits assumed): as above
Experiment [1] deals with CD95L-expressing leukemic T cell 1A12. Description: Expression level of membrane-bound CD95L on 1A12 cells by flow cytometry. Type of experiment: cell-based. The following applies: 24 h, antibodies 10 pg/mL, GM6001 10 μM. On the procedure: (§3) FIG. 2. Monoclonal antibodies targeting the Metalloprotease-Cleavage Sites of CD95L (MCSCs). […] Arrows represent putative cleavage site in CD95L sequence. […] Indicated peptides were injected in mice to generate monoclonal antibodies and three different hybridoma were selected regarding their ability to bind CD95L. […] B. Recombinant Ig-CD95L (100 ng) was pre-incubated for 15 min with indicated antibodies (100 pg/mL) and then treated for 1h with the indicated MMPs. The metalloprotease-cleaved fragment of Ig-CD95L (CD95L devoid of its released Ig domain of gp190) was monitored by immunoblotting. C. CD95L-expressing leukemic T cell 1A12 was incubated for 24 h with indicated antibodies ([…]) or the pan-MMP inhibitor GM6001 (10 μM) and the expression level of membrane-bound CD95L was assessed by flow cytometry. D. Supernatants were harvested from cells treated in C and the metalloprotease-cleaved CD95L was dosed by ELISA (Diaclone).
A general note: Flow cytometry measures light scatter and fluorescence of single cells or particles in a stream.

In experiment [2] the test system is s-CD95L release from 1A12 cells. Put plainly: Metalloprotease-cleaved CD95L dosed by ELISA in supernatants of 1A12 cells. Type of experiment: cell-based. The note with it: 1A12 cells treated 24 hours, vs isotype (anti-myc 9E10 mAb) control. On the procedure:
as §3
In general terms: ELISA stands for enzyme-linked immunosorbent assay.

The test system of another experiment is Jurkat cells. Description: Jurkat cell death induced by mAb-pre-treated 1A12 cells, drop of mitochondrial transmembrane potential (DIOC6). Type of experiment: cell-based. The note with it: 1A12 cells pre-treated 24 hours with 10 μg/mL mAb, then 4 hours with Jurkat cells. On the procedure:
(§4) FIG. 3. Antibody targeting the Metalloprotease-Cleavage Sites of CD95L (MCSCs) blocks the non-apoptotic functions of CD95L without affecting its apoptotic ones. A. WR19L (CD95L−) or 1A12 (CD95L+) cells were placed in the lower chamber of a Boyden chamber assay in the presence of the indicated mAbs ([…]). Triple negative breast cancer cell MDA-MB-231 was added to the upper part of the chamber and cell migration due to the gradient of metalloprotease-cleaved CD95L was evaluated after 24 hours by fixing and staining (Giemsa) migrating cells covering the lower side of the porous membrane. Left panel: Pictures of the Giemsa-stained MDA-MB-231 cells that migrated to the lower side of the membrane in the presence of WR19L (CD95L−) or 1A12 (CD95L+) cells and with isotypic (9E10) or anti-MCSC (3C7) monoclonal antibody. Right panel: Giemsa-stained MDA-MB-231 cells were lysed and absorbance was measured at a wavelength of 560 nm. Values represent the means and SEM of three independently performed experiments. **p<0.01 as calculated using two-tailed Mann-Whitney test. B. Upper panel: Jurkat cells are sensitive to the CD95-mediated apoptotic signal. […] Cell death was monitored by measuring the drop of mitochondrial transmembrane potential (Δψm). […] Cell death was monitored by measuring the drop of mitochondrial transmembrane potential (Δψm). […]

Experiment [3] concerns triple negative breast cancer cells MDA-MB-231. Put plainly: Boyden chamber assay, migration of MDA-MB-231 cells towards 1A12 (CD95L+) cells. Type of experiment: cell-based. The following applies: 1A12 (CD95L+) cells in lower chamber, mAb 10 pg/mL, 24 hours. The method, then: as §4

B1: 9F5: Monoclonal antibody targeting Metalloprotease-Cleavage Sites of CD95L; light chain SEQ ID NO:18, heavy chain SEQ ID NO:19 (antibody, listed as Mus musculus, V domains shown)
VH: QVQLQQSGAELAKPGASVKMSCKASGYTFTTYWMHWVKQRPGQDLEWIGYINPRNGYTEYNQNFKDKATLTADKSSTTAFMQLSSLTSEDSALYYCAVDLGYWGQGTLVTVSA
VL: DIVMTQSPSSLAMSVGQKVTMNCKSSQSLLSSRNQKTYLAWYQQKPGQSPKLLVYFTSTRASGVPDRFIGSGGTDFTLTISSVQAEDLALYYCQQHYNTPWTFGGGTKLEIK
Consider B1, for which the “Cleavage of CD95L by MMP2 in vitro” value in the experiment with CD95L cleavage by MMP2 is given as “efficiently abrogated the cleavage”. Besides, the “Cleavage of CD95L by MMP3 in vitro” value in the experiment on CD95L cleavage by MMP3 is “efficiently abrogated the cleavage”. Further, the “Expression level of membrane-bound CD95L” value in experiment [1] is on record as “did not alter”.

B2: 3C7: Monoclonal antibody targeting Metalloprotease-Cleavage Sites of CD95L; light chain SEQ ID NO:16, heavy chain SEQ ID NO:17 (antibody, listed as Mus musculus, V domains shown)
VH: QVQLQQSGAELAKPGASVKMSCKTSGYTFTSYWMHWVKQRPGQGLEWIGYINPNTGYTEYIQRFRDKATLTADKSSGTAYMQLSSLTSEDSAVYYCAVDLGYWGQGTLVTVSA
VL: DIVMTQSPSSLAMSVGQKVTMSCKSSQSLLSSRTQKHYLAWYQQKPGQSPKLLVYFTSTRESGVPDRFIGSGSGTDFTLTISSVQAEDLALYYCKQHYNTPWTFGGGTKLEIK
On to B2, for which the “Cleavage of CD95L by MMP2 in vitro” value in the experiment on CD95L cleavage by MMP2 is reported as “efficiently abrogated the cleavage”. For the same molecule, the “Concentrations of s-CD95L in supernatant” value in experiment [2] is listed as “significantly reduced”. Further, the “Apoptotic function of membrane-bound CD95L” value with Jurkat cells is “did not prevent the apoptotic function”. In addition, the “Generation of s-CD95L promoting migration of MDA-MB-231 cells” value in experiment [3] was “inhibited”. For the same molecule, the “Cleavage of CD95L by MMP3 in vitro” value in the experiment with CD95L cleavage by MMP3 is recorded as “efficiently abrogated the cleavage”. In addition, the “Expression level of membrane-bound CD95L” value in experiment [1] was “augmentation of m-CD95L similar to that observed with the broad spectrum MMP inhibitor GM6001”.
